Marks after values point to notes of the source that are not given here.
Key:
[1] = tested on: patients with atherosclerosis and evidence of carotid or aortic plaque inflammation; test: Phase IIa: inflammatory and metabolic biomarkers; assay type: in vivo, human
Protocol: (§1) Incidence and severity of adverse events and clinical laboratory abnormalities as a measure of safety and tolerability of orticumab. Effects of orticumab on inflammatory and metabolic biomarkers. Serum and EDTA plasma samples for soluble biomarker analysis were obtained at baseline and on Day 29 and Day 85. Biomarker assays were performed using the HumanMAP1.6 multiplex panel from Rules Based Medicine (RBM). IL-6 and TNFα immunoassays were performed at Pacific Biomarkers using Quantikine R&D High Sensitivity ELISA. IL-10, MPO and oxLDL immunoassays were performed at Pacific Biomarkers using immunoassay kits from MSA, Prognostix, and Mercodia, respectively. Presence of anti-therapeutic antibodies to orticumab.

SLE ApoE−/− mice = test: Passive immunization: spleen cells and plasma biomarkers; assay type: in vivo, mouse
Protocol: SLE ApoE^−/− mice were treated with three weekly injections of either orticumab or an irrelevant antibody as control. Six-week old mice were fed with HFD, and were injected at weeks 18, 19 and 20 with orticumab (one dose of 1 mg per week, IP injections), and sacrificed for analysis in week 22. Plaque area and composition were determined in the aortic root.

[2] = Phase IIa: safety, tolerability, anti-therapeutic antibodies; parameters: species or system human; settings: in vivo
Protocol: as §1

[3] = in vivo
[4] = tested on: monocyte chemoattractant protein 1, MCP-1; test: In vitro inhibition of oxLDL-mediated cytokine release (MCP-1); assay type: cell-based
Protocol: The ability of orticumab to shut down macrophage pro-inflammatory activity locally in the plaque became the focus, as it was thought to be an important mechanism underlying its therapeutic activity. Initial hypothesis of using orticumab related to neutralizing oxLDL from the systemic compartment, which required 4 μg/mL=˜28 nM=11 mg of orticumab to neutralize 90% systemic oxLDL. Further in vitro assays provided an insight into the minimum effective concentration of orticumab needed to achieve 50% or 90% inhibition of oxLDL-mediated cytokine release (i.e., inhibition of monocyte chemoattractant protein 1, MCP-1): […]

oxidized LDL = oxidized LDL (Homo sapiens, UniProt P04114); settings: cited from earlier work
oxidized LDL, sequence (P04114 28-4563): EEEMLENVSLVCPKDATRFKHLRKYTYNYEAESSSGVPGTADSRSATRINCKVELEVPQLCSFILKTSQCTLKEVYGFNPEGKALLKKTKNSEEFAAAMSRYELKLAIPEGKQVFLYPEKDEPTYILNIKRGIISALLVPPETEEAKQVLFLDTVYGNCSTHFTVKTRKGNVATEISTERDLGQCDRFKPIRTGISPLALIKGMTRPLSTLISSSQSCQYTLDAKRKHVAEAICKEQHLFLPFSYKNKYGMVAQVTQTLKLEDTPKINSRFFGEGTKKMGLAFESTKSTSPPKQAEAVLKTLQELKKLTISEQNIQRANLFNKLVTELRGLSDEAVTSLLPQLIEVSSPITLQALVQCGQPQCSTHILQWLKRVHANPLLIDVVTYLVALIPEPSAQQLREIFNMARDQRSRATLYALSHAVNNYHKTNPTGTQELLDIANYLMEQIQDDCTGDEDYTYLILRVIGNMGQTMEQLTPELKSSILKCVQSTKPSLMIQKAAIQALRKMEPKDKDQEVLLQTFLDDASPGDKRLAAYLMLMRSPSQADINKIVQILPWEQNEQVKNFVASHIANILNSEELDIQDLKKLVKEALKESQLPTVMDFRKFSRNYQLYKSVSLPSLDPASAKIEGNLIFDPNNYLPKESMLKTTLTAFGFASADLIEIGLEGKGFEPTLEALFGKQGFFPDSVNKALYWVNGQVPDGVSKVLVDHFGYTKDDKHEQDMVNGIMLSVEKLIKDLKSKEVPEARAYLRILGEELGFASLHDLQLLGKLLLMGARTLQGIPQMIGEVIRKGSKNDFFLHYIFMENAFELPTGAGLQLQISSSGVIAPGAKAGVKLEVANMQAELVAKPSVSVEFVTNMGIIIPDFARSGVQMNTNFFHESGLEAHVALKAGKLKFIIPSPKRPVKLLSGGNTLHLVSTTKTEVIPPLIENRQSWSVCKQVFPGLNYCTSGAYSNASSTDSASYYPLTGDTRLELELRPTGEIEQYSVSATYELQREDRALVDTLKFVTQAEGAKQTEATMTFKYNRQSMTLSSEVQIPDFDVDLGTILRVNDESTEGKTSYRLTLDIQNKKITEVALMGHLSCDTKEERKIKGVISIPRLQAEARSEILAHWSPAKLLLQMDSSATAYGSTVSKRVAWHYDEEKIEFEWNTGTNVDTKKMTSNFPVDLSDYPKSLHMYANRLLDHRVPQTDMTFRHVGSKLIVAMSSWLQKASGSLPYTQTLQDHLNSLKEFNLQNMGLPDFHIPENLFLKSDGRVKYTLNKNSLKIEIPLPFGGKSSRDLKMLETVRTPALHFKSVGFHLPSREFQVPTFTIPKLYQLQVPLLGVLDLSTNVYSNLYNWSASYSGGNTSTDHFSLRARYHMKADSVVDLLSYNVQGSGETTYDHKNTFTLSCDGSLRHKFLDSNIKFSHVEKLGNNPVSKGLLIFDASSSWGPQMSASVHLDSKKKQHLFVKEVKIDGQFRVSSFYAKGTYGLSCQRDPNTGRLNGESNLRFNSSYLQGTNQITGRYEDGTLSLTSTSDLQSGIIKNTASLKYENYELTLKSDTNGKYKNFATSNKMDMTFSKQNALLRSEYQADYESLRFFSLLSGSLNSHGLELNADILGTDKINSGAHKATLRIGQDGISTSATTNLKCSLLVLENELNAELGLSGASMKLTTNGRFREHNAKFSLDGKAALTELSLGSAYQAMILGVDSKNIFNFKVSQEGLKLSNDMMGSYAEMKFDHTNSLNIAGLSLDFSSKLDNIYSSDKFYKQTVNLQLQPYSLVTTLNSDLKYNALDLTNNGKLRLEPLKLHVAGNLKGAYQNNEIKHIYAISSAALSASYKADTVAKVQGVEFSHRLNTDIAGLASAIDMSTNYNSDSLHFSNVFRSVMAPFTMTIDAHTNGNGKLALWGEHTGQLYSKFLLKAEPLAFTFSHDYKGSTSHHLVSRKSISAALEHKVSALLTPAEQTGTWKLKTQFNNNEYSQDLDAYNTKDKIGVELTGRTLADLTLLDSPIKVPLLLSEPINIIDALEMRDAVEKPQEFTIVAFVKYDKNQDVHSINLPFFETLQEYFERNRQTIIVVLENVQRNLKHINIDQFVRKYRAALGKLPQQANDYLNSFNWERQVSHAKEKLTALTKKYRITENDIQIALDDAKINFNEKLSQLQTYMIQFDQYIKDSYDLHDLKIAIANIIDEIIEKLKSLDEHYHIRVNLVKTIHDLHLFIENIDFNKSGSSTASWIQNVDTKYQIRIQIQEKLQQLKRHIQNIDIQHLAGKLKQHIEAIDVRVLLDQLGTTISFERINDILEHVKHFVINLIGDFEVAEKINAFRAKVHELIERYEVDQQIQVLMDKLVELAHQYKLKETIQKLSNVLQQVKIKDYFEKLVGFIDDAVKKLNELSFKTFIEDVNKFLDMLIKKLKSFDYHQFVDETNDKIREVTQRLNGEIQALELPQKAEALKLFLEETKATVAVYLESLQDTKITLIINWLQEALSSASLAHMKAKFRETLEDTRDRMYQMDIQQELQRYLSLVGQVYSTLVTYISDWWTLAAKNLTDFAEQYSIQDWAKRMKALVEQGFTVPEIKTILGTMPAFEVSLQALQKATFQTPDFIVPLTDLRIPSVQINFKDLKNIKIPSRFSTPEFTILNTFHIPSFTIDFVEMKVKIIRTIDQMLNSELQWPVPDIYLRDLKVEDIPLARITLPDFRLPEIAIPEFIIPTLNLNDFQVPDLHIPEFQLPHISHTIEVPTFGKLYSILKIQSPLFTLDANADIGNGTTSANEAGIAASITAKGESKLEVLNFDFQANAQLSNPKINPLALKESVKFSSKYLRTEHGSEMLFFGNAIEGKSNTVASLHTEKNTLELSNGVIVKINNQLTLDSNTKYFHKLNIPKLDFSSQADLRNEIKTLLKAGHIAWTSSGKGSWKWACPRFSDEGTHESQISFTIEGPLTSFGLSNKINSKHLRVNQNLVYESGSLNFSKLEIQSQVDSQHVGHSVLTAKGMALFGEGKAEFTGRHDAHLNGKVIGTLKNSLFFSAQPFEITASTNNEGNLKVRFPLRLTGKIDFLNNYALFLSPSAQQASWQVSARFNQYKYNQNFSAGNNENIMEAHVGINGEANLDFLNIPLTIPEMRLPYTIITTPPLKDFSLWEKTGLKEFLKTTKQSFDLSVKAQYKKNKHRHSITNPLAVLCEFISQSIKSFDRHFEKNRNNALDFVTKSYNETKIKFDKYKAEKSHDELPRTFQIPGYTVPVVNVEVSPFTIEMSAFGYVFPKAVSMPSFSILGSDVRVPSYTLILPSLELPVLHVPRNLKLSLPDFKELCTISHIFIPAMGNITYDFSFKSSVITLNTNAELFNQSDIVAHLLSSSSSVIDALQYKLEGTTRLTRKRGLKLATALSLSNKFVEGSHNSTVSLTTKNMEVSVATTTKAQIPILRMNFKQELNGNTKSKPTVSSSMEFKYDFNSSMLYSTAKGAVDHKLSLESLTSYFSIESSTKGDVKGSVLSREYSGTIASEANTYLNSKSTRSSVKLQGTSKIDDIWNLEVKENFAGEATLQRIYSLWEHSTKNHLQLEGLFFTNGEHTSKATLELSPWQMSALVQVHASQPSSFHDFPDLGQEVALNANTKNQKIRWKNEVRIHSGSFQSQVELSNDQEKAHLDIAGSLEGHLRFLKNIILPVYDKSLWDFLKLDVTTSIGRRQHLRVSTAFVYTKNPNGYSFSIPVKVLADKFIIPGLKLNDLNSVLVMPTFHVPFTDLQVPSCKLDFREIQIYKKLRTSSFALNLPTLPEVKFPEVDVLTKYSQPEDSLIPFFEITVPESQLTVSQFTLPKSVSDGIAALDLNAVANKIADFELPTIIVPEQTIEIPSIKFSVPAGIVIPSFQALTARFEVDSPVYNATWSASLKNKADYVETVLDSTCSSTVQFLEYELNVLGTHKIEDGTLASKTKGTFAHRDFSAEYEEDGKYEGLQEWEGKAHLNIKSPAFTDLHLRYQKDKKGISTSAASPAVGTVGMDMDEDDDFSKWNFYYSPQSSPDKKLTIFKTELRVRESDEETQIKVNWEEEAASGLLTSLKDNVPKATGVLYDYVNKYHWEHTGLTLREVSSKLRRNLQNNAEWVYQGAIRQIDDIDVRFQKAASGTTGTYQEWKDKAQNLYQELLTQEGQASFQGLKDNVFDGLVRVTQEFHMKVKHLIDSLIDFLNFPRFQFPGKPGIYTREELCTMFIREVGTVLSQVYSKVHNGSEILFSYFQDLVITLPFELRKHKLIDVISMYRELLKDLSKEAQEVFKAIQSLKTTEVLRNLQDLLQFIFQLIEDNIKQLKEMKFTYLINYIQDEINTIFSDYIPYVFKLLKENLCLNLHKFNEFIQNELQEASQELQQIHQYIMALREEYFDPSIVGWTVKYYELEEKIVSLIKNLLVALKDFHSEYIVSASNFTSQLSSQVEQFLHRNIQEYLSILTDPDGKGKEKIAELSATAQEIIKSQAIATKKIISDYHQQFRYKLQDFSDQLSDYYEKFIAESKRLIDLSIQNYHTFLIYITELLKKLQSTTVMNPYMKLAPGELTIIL

B6.lpr.ApoE−/− mice = test: Carotid artery mRNA expression; assay type: in vivo, mouse; settings: 1 mg i.p. weekly x3; vs control IgG
Protocol: Statistics: Clinical comparisons from human individuals were evaluated and statistically tested using SPSS software. For same-individual analyses, paired nonparametric Wilxocon rank test was used. For normally distributed data, Students t-test was used. For not normally distributed data, Mann-Whitney rank test was used. Numerical data is expressed as mean±standard deviation if normally distributed or median±intra-quartile range if not normally distributed. Carotid gene expressions were log transformed and expressed as arbitrary units (A.U) and relative fold change respectively. All data was plotted in GraphPad Prism and significance levels used are *=p<0.05 **=p<0.01, ***=p<0.001.

[5] = in vivo; remark: listed apart in the source
[6] = Phase I (FIH) dose-escalation trial, single and multiple doses: pharmacokinetics; parameters: species or system human; settings: in vivo
Protocol: (§2) Study population: 80 healthy subjects with elevated LDL cholesterol.
Orticumab was provided as a sterile liquid and contained no preservatives. Each single-use, 10 mL vial was designed to deliver 250 mg of MLDL1278A. The Drug Product was formulated as 25 mg/mL orticumab in 20 mM sodium acetate, 0.15 M sodium chloride, pH 5.5.
Route of Administration: intravenous injection (Subcutaneous injection was also examined).
The exact explanation for these unusual PK characteristics was unknown at that time. The mean terminal half-life was similar after both single and multiple administrations of orticumab and was generally in the range of 2-3 weeks and thus in agreement with other therapeutic monoclonal antibodies.

[7] = tested on: patients with atherosclerosis and evidence of carotid or aortic plaque inflammation; test: Phase IIa: arterial inflammation by FDG-PET/CT (index vessel MDS-TBR); assay type: in vivo, human; settings: versus placebo; single (1245 mg IV) and multiple infusion groups
Protocol: The study enrolled 147 participants (83% male; mean age 63.0±9.0 years) with atherosclerosis and evidence of carotid or aortic plaque inflammation, measured by FDG-PET/computed tomography (CT). Because there is poor correlation between serum LDL levels and both serum and plaque oxLDL levels, patients were enrolled with a relatively wide range of serum LDL levels (fasting LDL>60 mg/dL at screening, which includes patients both above and below National Cholesterol Education Program Adult Treatment Panel III treatment goals). 139 patients completed the study.
The study consisted of a 28-day screening period, a 78-day treatment period, and a 90-day follow-up period. […] During the screening period, patient acceptability for the study was assessed on the basis of medical history, concomitant medications, physical examination, and clinical laboratory test results. Once a patient passed this initial screening phase, acceptability for study participation was confirmed on the basis of a TBR>1.8 in the qualifying vessel, as quantified by FDG-PET/CT. […]
The primary outcome variable was change in index vessel MDS-TBR (most diseased segment-target to background ratio) measured by FDG-PET/CT from baseline to week 12. Arterial FDG uptake was assessed as target to-background ratio (TBR). […]

[8] = tested on: healthy subjects with elevated LDL cholesterol; test: Phase I dose-escalation trial: biomarkers and lipids; assay type: in vivo, human; settings: healthy volunteers
Excerpt: as §2
The panel included: oxLDL, Lp-PLA2, hsCRP, sCD36, MCP-1, ICAM-1, IL-10, VCAM-1, IL-1ra, TNFα, insulin, and MMP-3.

[9] = oxLDL-mediated cytokine release

orticumab: recombinant human IgG1 against MDA-modified peptide 45 of ApoB100; heavy chain SEQ ID NO: 316, light chain SEQ ID NO: 317
interleukin 6 level ([1]; 4 weeks, multiple-dose group): nominal increase | tumor necrosis factor alpha level ([1]; 4 weeks, multiple-dose group): nominal increase | lipid parameters or high-sensitivity C-reactive protein level ([1]; either group): No significant decreases | spleen monocytes or B cells (SLE ApoE−/− mice; end of experiment): no differences | plasma levels of oxidized LDL and plasma cytokines (SLE ApoE−/− mice; mouse, in vivo): no differences | dose-limiting toxicities, deaths, pregnancies [2]: No dose-limiting toxicities, deaths, or pregnancies | immunogenicity [2]: no evidence of immunogenicity | serious adverse events related to procedures or administration [2]: No serious adverse events | tolerability [2]: well tolerated | subjects on active treatment reporting adverse events [3]: 44 of the 64 | treatment-emergent adverse events reported on active treatment [3]: 115 (76.2%) | IC50 for MCP-1 inhibition ([4]; expressed as amount): ~4 mg | IC90 for MCP-1 inhibition ([4]; expressed as amount): 12.4 to 33 mg | IC50 for MCP-1 inhibition [4, 9]: 1.5 µg/mL | IC90 [4, 9]: 30 to 80 nM | IC90 for MCP-1 inhibition [4, 9]: 4.5 to 12 µg/mL | binding specificity, oxidized vs native LDL (oxidized LDL): binds only to oxidized LDL and not to native LDL | mRNA expression of IL-10 or MCP-1 in carotid arteries (B6.lpr.ApoE−/− mice): no effect | SAEs during the study [5]: no SAEs | most frequently reported TEAEs ([5]; sc): mild intensity local site reactions | mean terminal half-life ([6]; human): 2-3 weeks | Cmax ([6]; human, iv, 1.25 mg/kg): 20600 ng/mL | Cmax ([6]; human, iv, 5 mg/kg): 105000 ng/mL | Cmax ([6]; human, sc, 1.25 mg/kg): 2990 ng/mL | Cmax, max exposure IV vs SC ([6]; 1.25 mg/kg): 6.9 times | ½-life ([6]; 1.25 mg/kg): 20 days | C ≥ 1 μg/mL ([6]; iv, 1.25 mg/kg): Day 28 | C ≥ 4 μg/mL ([6]; iv, 1.25 mg/kg): Day 3 (<Day 7) | C ≥ 12 μg/mL ([6]; iv, 1.25 mg/kg): 11 h | C ≥ 1 μg/mL ([6]; iv, 5 mg/kg): Day 56 | C ≥ 4 μg/mL ([6]; iv, 5 mg/kg): Day 14 | C ≥ 12 μg/mL ([6]; iv, 5 mg/kg): Day 3 | C ≥ 1 μg/mL ([6]; iv, 15 mg/kg): Day 70* | C ≥ 4 μg/mL ([6]; iv, 15 mg/kg): Day 42 | C ≥ 12 μg/mL ([6]; iv, 15 mg/kg): Day 28 | C ≥ 1 μg/mL ([6]; sc, 1.25 mg/kg): Day 28 | C ≥ 4 μg/mL ([6]; sc, 1.25 mg/kg): Not achieved | C ≥ 12 μg/mL ([6]; sc, 1.25 mg/kg): Not achieved | Cmax of SC dose versus threshold ([6]; sc, 1.25 mg/kg): does not reach threshold of 4-12 μg/mL | arterial inflammation (index vessel MDS-TBR), baseline to week 12 [7]: did not significantly reduce | biomarkers (oxLDL, Lp-PLA2, hsCRP, sCD36, MCP-1, ICAM-1, IL-10, VCAM-1, IL-1ra, TNFα, insulin, MMP-3) [8]: No treatment-induced general effects

Reference: patent publication US10858422B2, “Methods for treating systemic lupus erythematosus with an anti-apolipoprotein B antibody” (Abcentra, LLC, priority 2016, dated 2020)
